Results: PMC5681435 (2017)

Columns and labels:
[1] = biological target: GSTCDK6 (human, UniProt Q00534 1-326); assay: SPR
[2] = biological target: T1, GSTCDK4 (human, UniProt P11802 1-303); assay: SPR
T1 chain: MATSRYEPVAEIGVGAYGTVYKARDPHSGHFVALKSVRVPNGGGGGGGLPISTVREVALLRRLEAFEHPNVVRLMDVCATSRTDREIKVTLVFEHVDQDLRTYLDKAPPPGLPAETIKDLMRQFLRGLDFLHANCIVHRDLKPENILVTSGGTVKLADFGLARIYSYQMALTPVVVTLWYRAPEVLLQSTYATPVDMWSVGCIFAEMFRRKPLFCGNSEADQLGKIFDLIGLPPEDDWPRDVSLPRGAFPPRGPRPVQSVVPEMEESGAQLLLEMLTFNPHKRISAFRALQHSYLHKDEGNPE

GSTCDK6, sequence (Q00534 whole entry): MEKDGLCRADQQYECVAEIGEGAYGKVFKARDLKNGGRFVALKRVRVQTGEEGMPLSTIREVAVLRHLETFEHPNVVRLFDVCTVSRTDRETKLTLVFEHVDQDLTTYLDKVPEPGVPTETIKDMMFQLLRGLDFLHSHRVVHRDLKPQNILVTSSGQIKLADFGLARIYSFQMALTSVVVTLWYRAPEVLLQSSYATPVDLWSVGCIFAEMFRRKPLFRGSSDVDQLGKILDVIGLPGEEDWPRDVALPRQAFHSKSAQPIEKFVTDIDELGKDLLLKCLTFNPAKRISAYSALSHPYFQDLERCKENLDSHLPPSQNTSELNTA

B1: Cdc37 (analyte of the SPR titrations) (natural protein)
chain: MVDYSVWDHIEVSDDEDETHPNIDTASLFRWRHQARVERMEQFQKEKEELDRGCRECKRKVAECQRKLKELEVAEGGKAELERLQAEAQQLRKEERSWEQKLEEMRKKEKSMPWNVDTLSKDGFSKSMVNTKPEKTEEDSEEVREQKHKTFVEKYEKQIKHFGMLRRWDDSQKYLSDNVHLVCEETANYLVIWCIDLEVEEKCALMEQVAHQTIVMQFILELAKSLKVDPRACFRQFFTKIKTADRQYMEGFNDELEAFKERVRGRAKLRIEKAMKEYEEEERKKRLGPGGLDPVEVYESLPEELQKCFDVKDVQMLQDAISKMDPTDAKYHMQRCIDSGLWVPNSKASEAKEGEEAGPGDPLLEAVPKTGDEKDVSV
Kd [1]: 7 µM | Kd [2]: 0.347 µM
